Patent US20240116985A1, “STAPLED PEPTIDES AND METHODS THEREOF” (priority 2020, published 2024)
Values belong to the binder of their own block, whether it stands above or below them. Starred links: 1 amine or outer side, 2 acyl side, 3 side chain; linkers in the order of their positions; H or OH if unused. Positions of bridges follow the written chain, without caps; N, C: chain ends. Non-standard residues stand in square brackets, D forms with d. Primed or numbered codes have the meaning given here. *: point of attachment. PyrS2″ = (S)-3-amino-1-((pent-4-en-1-yloxy)carbonyl)pyrrolidine-3-carboxylic acid (stapling residue), C=CCCCOC(=O)N1CC[C@@](N[*:1])(C(=O)[*:2])C1; B5(5) = 2,2-bis(4-pentenyl)glycine, 2-amino-2-(pent-4-en-1-yl)hept-6-enoic acid (stitching residue), C=CCCCC(CCCC=C)(N[*:1])C(=O)[*:2]; PyrS2 = (S)-3-amino-1-((pent-4-en-1-yloxy)carbonyl)pyrrolidine-3-carboxylic acid, C=CCCCOC(=O)N1CC[C@@](N[*:1])(C(=O)[*:2])C1; B5(12) = 2-amino-2-(pent-4-en-1-yl)hept-6-enoic acid (two olefin side chains), C=CCCCC(CCCC=C)(N[*:1])C(=O)[*:2]; B5(19) = 2-amino-2-(pent-4-en-1-yl)hept-6-enoic acid (bis(4-pentenyl)glycine), C=CCCCC(CCCC=C)(N[*:1])C(=O)[*:2]; B5(3) = 2,2-bis(4-pentenyl)glycine (stitching residue), C=CCCCC(CCCC=C)(N[*:1])C(=O)[*:2]; Phe(3-COOH) = N[C@@H](Cc1cccc(C(=O)O)c1)C(=O)O; Phe(2-CF3) = N[C@@H](Cc1ccccc1C(F)(F)F)C(=O)O; Phe(2-Cl) = N[C@@H](Cc1ccccc1Cl)C(=O)O; Bta = N[C@@H](Cc1csc2ccccc12)C(=O)O; αAllylPro = C=CC[C@@]1(C(=O)O)CCCN1; tBuAla = CC(C)(C)C[C@H](N)C(=O)O; 3Thi = N[C@@H](Cc1ccsc1)C(=O)O; S8 = C=CCCCCCC[C@](C)(N)C(=O)O; hSer = N[C@@H](CCO)C(=O)O; Nle = CCCC[C@H](N)C(=O)O; Aib = CC(C)(N)C(=O)O; iPr = CC(C)*

Legend:
[1] = target: full-length beta-Catenin (Uniprot ID P35222) (Homo sapiens (Human)) (UniProt P35222); test: fluorescence polarization competition against 5FAM-TCF4 (10-53) on full-length beta-catenin
Target sequence in this assay (P35222 2-781 limits assumed): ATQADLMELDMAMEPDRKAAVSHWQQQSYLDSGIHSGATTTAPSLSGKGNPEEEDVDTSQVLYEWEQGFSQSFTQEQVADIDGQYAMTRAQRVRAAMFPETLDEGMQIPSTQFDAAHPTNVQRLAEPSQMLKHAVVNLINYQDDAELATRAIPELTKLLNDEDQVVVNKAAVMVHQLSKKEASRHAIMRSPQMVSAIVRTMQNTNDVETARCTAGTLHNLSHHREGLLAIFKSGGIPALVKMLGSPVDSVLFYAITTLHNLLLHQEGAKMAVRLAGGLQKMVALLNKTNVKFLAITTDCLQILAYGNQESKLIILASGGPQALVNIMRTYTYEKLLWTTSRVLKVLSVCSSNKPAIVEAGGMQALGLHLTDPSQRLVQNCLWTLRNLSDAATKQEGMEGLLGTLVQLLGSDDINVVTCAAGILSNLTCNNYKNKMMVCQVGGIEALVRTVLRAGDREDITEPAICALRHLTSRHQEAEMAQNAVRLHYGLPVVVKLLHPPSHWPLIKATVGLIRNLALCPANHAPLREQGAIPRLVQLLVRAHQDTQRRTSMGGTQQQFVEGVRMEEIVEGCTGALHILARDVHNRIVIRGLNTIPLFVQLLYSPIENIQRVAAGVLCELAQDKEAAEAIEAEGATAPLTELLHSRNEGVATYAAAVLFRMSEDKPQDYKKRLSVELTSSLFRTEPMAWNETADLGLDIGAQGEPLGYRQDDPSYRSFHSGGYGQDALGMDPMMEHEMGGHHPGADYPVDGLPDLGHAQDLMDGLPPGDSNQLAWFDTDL

[2] = target: full-length beta-Catenin (Uniprot ID P35222) (Homo sapiens (Human)) (UniProt P35222); test: fluorescence polarization competition; full-length beta-catenin, competitor 5FAM-TCF4 10-53 probe
Target sequence in this assay (P35222 2-781 limits assumed): as above

[3] = target: Bcat-Halo (beta-catenin HaloTag construct expressed in HEK293 cells) (UniProt P35222); test: NanoBRET Abs IC50 in HEK293 cells; B-cat-Halo with competitor TCF4-Luc
[4] = target: beta-catenin (Homo sapiens (Human)) (UniProt P35222); test: fluorescence polarization competition; full-length beta-catenin with 5FAM-TCF4(10-53) probe as competitor
[5] = target: full-length beta-Catenin (Uniprot ID P35222) (Homo sapiens (Human)) (UniProt P35222); test: fluorescence polarization competition; full-length beta-catenin, competitor 5FAM-TCF4(10-53)
Target sequence in this assay (P35222 2-781 limits assumed): as above

[6] = target: full-length beta-Catenin (Uniprot ID P35222) (Homo sapiens (Human)) (UniProt P35222); test: cell-based or functional assay
Target sequence in this assay (P35222 2-781 limits assumed): as above

[7] = target: Bcat-Halo (UniProt P35222); test: NanoBRET Abs IC50, HEK293 cells; Bcat-Halo / TCF4-Luc engagement
[8] = target: full-length beta-Catenin (Uniprot ID P35222) (Homo sapiens (Human)) (UniProt P35222); test: FP competition; full-length beta-catenin, competitor 5FAM-TCF4(10-53)
Target sequence in this assay (P35222 whole entry, one chain of several): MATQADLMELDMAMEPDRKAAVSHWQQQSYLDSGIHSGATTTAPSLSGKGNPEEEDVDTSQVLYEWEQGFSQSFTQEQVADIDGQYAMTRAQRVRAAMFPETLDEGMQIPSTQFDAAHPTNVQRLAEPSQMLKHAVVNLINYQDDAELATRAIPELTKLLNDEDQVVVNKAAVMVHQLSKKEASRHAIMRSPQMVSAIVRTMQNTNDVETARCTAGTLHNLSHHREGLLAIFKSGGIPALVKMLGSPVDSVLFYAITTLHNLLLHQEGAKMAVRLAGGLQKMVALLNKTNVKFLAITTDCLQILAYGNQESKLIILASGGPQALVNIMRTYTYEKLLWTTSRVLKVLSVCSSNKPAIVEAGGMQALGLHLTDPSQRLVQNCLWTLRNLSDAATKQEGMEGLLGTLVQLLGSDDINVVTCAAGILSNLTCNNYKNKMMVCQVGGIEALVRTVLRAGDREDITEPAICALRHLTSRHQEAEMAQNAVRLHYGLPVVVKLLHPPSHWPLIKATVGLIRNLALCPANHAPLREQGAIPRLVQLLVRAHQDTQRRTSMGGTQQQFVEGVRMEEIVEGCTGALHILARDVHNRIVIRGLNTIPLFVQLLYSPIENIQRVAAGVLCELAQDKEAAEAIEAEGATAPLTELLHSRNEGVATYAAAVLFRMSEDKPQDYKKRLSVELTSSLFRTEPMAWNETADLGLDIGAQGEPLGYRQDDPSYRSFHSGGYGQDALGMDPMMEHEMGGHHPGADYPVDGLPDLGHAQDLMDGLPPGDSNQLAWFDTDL

[9] = target: full-length beta-Catenin (Uniprot ID P35222) (Homo sapiens (Human)) (UniProt P35222); test: fluorescence polarization competition; full-length beta-catenin + 5FAM-TCF4(10-53) probe
Target sequence in this assay (P35222 whole entry, one chain of several): as above

[10] = target: full-length beta-Catenin (Uniprot ID P35222) (Homo sapiens (Human)) (UniProt P35222); test: fluorescence polarization competition against 5FAM-TCF4(10-53) on full-length beta-catenin
Target sequence in this assay (P35222 whole entry, one chain of several): as above

[11] = target: Bcat-Halo (UniProt P35222); test: NanoBRET Abs IC50, HEK293 cells, Bcat-Halo/TCF4-Luc; competitor TCF4-Luc

Chain of Bcat-Halo (beta-catenin HaloTag construct expressed in HEK293 cells) (P35222 whole entry): as the sequence (P35222 whole entry, one chain of several) above
Chain of beta-catenin (Homo sapiens (Human)) (P35222 whole entry): as the sequence (P35222 whole entry, one chain of several) above
Chain of Bcat-Halo (P35222 whole entry): as the sequence (P35222 whole entry, one chain of several) above

Binder: Ac-[αAllylPro]DL[B5(12)]D[Phe(3-COOH)]AAF[Nle][PyrS2″][3Thi][Bta]Q-NH2 (staple 1-4, 4-11) [I-1407]
IC50 [2]: 5 nM
IC50 [3]: 4200 nM
EC50 [4]: 5 nM

Binder: Ac-[αAllylPro]DL[B5(12)]D[Phe(3-COOH)]AAFL[PyrS2″][3Thi][Bta]Q-NH2 (staple 1-4, 4-11) [I-1406]
IC50 [2]: 6 nM
IC50 [3]: 5000 nM
EC50 [4]: 6 nM

Binder: Ac-[αAllylPro]D[tBuAla][B5(3)]D[Phe(3-COOH)]AAFF[PyrS2″][Phe(2-Cl)][Bta]N-NH2 (staple 1-4, 4-11) [I-2037]
IC50 [1]: 17 nM

Binder: Ac-[αAllylPro]D[tBuAla][B5(3)]D[Phe(3-COOH)]AAFA[PyrS2″][Phe(2-Cl)][Bta]N-NH2 (staple 1-4, 4-11) [I-2036]
IC50 [1]: 19 nM

Binder: Ac-[αAllylPro]D[tBuAla][B5(3)]D[Phe(3-COOH)]AAFL[PyrS2″][Phe(2-Cl)][Bta]NAAA-NH2 (staple 1-4, 4-11) [I-2040]
IC50 [1]: 24 nM

Binder: Ac-[αAllylPro]D[tBuAla][B5(12)]DDAAFL[PyrS2″][3Thi][Bta]L-NH2 (staple 1-4, 4-11) [I-1409]
IC50 [2]: 74 nM
IC50 [3]: 24000 nM
EC50 [4]: 74 nM

Binder: Ac-[αAllylPro]D[tBuAla][B5(19)]DDAAF[hSer][S8][Phe(2-CF3)][Bta]Q-NH2 (staple 1-4, 4-11) [I-1397]
EC50 [8]: 48 nM
IC50 [2]: 48 nM
IC50 [3]: 16400 nM

Binder: Ac-[αAllylPro]D[Nle][B5(12)]DDAAF[Nle][PyrS2″]F[Bta]Q-NH2 (staple 1-4, 4-11) [I-1405]
IC50 [2]: 9 nM
IC50 [3]: 40100 nM
EC50 [4]: 9 nM

Binder: Ac-[αAllylPro]D[Nle][B5(19)]DDAAF[Nle][PyrS2][3Thi][Bta]Q-NH2 (staple 1-4, 4-11) [I-1401]
IC50 [2]: 5 nM
IC50 [3]: 21400 nM
EC50 [4]: 5 nM

Binder: Ac-[αAllylPro]D[tBuAla][B5(19)]DDAAF[hSer][S8][Phe(2-Cl)][Bta]Q-NH2 (staple 1-4, 4-11) [I-1395]
EC50 [8]: 33 nM
IC50 [2]: 33 nM
IC50 [3]: 15400 nM

Binder: Ac-[αAllylPro]D[tBuAla][B5(5)]DEAAFK(iPr)[PyrS2][Phe(2-Cl)][Bta]T-NH2 (staple 1-4, 4-11) [I-1282]
EC50 [9]: 34 nM
IC50 [10]: 34 nM
IC50 [11]: 43100 nM

Binder: Ac-[αAllylPro]D[Nle][B5(12)]DDAAFL[PyrS2″][3Thi][Bta]L-NH2 (staple 1-4, 4-11) [I-1412]
IC50 [2]: 79 nM
IC50 [3]: > 20000 nM
EC50 [4]: 79 nM

Binder: Ac-[αAllylPro]D[Nle][B5(12)]DDAAFL[PyrS2″][3Thi][Bta]L-NH2 (staple 1-4, 4-11; also: staple isomer, earlier eluting HPLC peak) [I-1411]
IC50 [2]: 109 nM
IC50 [3]: 47100 nM
EC50 [4]: 109 nM

Binder: Ac-[αAllylPro]DL[B5(12)]DDAAF[Nle][PyrS2″]F[Bta]Q-NH2 (staple 1-4, 4-11) [I-1404]
IC50 [2]: 113 nM
IC50 [3]: 36800 nM
EC50 [4]: 113 nM

Binder: Ac-[αAllylPro]DL[B5(12)]DDAAFL[PyrS2″][3Thi][Bta]L-NH2 (staple 1-4, 4-11) [I-1410]
IC50 [2]: 80 nM
IC50 [3]: 29300 nM
EC50 [4]: 80 nM

Binder: Ac-[αAllylPro]D[tBuAla][B5(3)]D[Phe(3-COOH)]AAFA[PyrS2″][Phe(2-Cl)][Bta]N-NH2 (staple 1-4, 4-11; also: staple isomer, earlier eluting HPLC peak) [I-2035]
IC50 [1]: 16 nM

Binder: Ac-[αAllylPro]D[tBuAla][B5(3)]D[Phe(3-COOH)]AAFN[PyrS2″][Phe(2-Cl)][Bta]F-NH2 (staple 1-4, 4-11) [I-2033]
IC50 [1]: 30 nM

Binder: Ac-[αAllylPro]D[tBuAla][B5(3)]D[Phe(3-COOH)]AAFL[PyrS2″][Phe(2-Cl)][Bta]NAA[dA]-NH2 (staple 1-4, 4-11) [I-2041]
IC50 [1]: 16 nM

Binder: Ac-[αAllylPro]D[tBuAla][B5(5)]DEAAFK(iPr)[PyrS2][Phe(2-Cl)][Bta]L-NH2 (staple 1-4, 4-11) [I-1283]
EC50 [9]: 26 nM
IC50 [10]: 26 nM
IC50 [11]: 38600 nM

Binder: Ac-[αAllylPro]D[tBuAla][B5(5)]DEAAFK(iPr)[PyrS2][Phe(2-Cl)][Bta]Q-NH2 (staple 1-4, 4-11) [I-1281]
EC50 [9]: 10 nM
IC50 [10]: 10 nM
IC50 [11]: 22200 nM

Other lines, results leading:

IC50 [1]: 8 nM
Binder: Ac-[αAllylPro]D[tBuAla][B5(3)]D[Phe(3-COOH)]AAFL[PyrS2″][3Thi][Bta]N-NH2 (staple 1-4, 4-11) [I-2043]

IC50 [1]: 9 nM
Binder: Ac-[αAllylPro]D[tBuAla][B5(3)]D[Phe(3-COOH)]AAFF[PyrS2″][3Thi][Bta]N-NH2 (staple 1-4, 4-11) [I-2044]

IC50 [5]: 5 nM
DLD1 4% Abs IC50 [6]: 1100 nM
IC50 [7]: 4600 nM
Binder: Ac-[αAllylPro]D[tBuAla][B5(5)]D[Phe(3-COOH)]AAFL[PyrS2″][Phe(2-CF3)][Bta]QLS-NH2 (staple 1-4, 4-11) [I-2384]

IC50 [5]: 462 nM
IC50 [7]: 8600 nM
Binder: Ac-[αAllylPro]D[tBuAla][B5(5)]D[Phe(3-COOH)]AAFL[PyrS2][Phe(2-CF3)][Bta]QLY-NH2 (staple 1-4, 4-11) [I-2392]

IC50 [1]: 9 nM
Binder: Ac-[αAllylPro]D[tBuAla][B5(3)]D[Phe(3-COOH)]SAFL[PyrS2″][3Thi][Bta]A-NH2 (staple 1-4, 4-11) [I-2050]

IC50 [5]: 330 nM
DLD1 4% Abs IC50 [6]: 1500 nM
IC50 [7]: 2700 nM
Binder: Ac-[αAllylPro]D[tBuAla][B5(5)]D[Phe(3-COOH)]AAFL[PyrS2″][Phe(2-CF3)][Bta]QLL-NH2 (staple 1-4, 4-11) [I-2380]

IC50 [1]: 5 nM
Binder: Ac-[αAllylPro]D[tBuAla][B5(3)]D[Phe(3-COOH)]AAFS[PyrS2″][3Thi][Bta]N-NH2 (staple 1-4, 4-11) [I-2045]

IC50 [5]: 77 nM
DLD1 4% Abs IC50 [6]: 800 nM
IC50 [7]: 4200 nM
Binder: Ac-[αAllylPro]D[tBuAla][B5(5)]D[Phe(3-COOH)]AAFL[PyrS2″][Phe(2-CF3)][Bta]QLT-NH2 (staple 1-4, 4-11) [I-2383]

IC50 [5]: 1470 nM
DLD1 4% Abs IC50 [6]: 1100 nM
IC50 [7]: 2100 nM
Binder: Ac-[αAllylPro]D[tBuAla][B5(5)]D[Phe(3-COOH)]AAFL[PyrS2″][Phe(2-CF3)][Bta]QLF-NH2 (staple 1-4, 4-11) [I-2381]

IC50 [5]: 75.5 nM
DLD1 4% Abs IC50 [6]: 700 nM
IC50 [7]: 2800 nM
Binder: Ac-[αAllylPro]D[tBuAla][B5(5)]D[Phe(3-COOH)]AAFL[PyrS2″][Phe(2-CF3)][Bta]QL[Aib]-NH2 (staple 1-4, 4-11) [I-2386]

IC50 [1]: 9 nM
Binder: Ac-[αAllylPro]D[tBuAla][B5(3)]D[Phe(3-COOH)]AAFA[PyrS2″][3Thi][Bta]N-NH2 (staple 1-4, 4-11) [I-2042]
